According to the nanobody polyreactivity screen of Harvey et al. (2022):

Assay: yeast display, Sf9 membrane polyspecificity reagent, FACS + sequencing; frameworks hold sequencing errors
How it was run: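 Polyreactivity labels are assigned by the sorting gate from which each nanobody was recovered. The gates were low and high (top ~1%), set on anti-HA fluorescence for expression and streptavidin fluorescence for reagent binding. Before sorting, galactose-induced (36–48 hours) yeast display cells were stained for 1 hour at 4 °C with 10% biotinylated, detergent-solubilized Sf9 membrane reagent.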

| Sequence | polyreactivity (PSR sort gate) |
| --- | --- |
| QVQLVESGGGLVQAGGSLRLSCAASGITFKFYAMGWYRQAPGKERELVAAIDSRGGSTYYADSVKGRFTISRDNAKNTVYLQMNSLKPEDTSVYYCNKVGRRKLDYWGQGTQVTVSS | high polyreactivity |
| QVQLVESGGGLVQAGGSLRLSCAASGITFKGNAMGWYRQAPGKERELVAVITWSGGSTYYADSVKGRFTISRDNAKNTVYLQMNSLKPEDTAVYYCAKPWIYGDSQYDYWGQGTQVTVSS | low polyreactivity |
| QVQLVESGGGLVQAGGSLRLSCAASGITFKSYAMGWYRQAPGKERELVAAIARRGGSTYYADSVKGRFTISRDNAKNTVYLQMNSLKPEDTAVYYCAADSGREPKGPSRLTYWGQGTQVTVSS | high polyreactivity |
| QVQLVESGGGLVQAGGSLRLSCAASGITFKSYAMGWYRQAPGKERELVAAISRRGGSTYYADSVKGRFTISRDNAKNTVYLQMNSLKPEDTAVYYCAADSGREPKGPSRLTYWGQGTQVTVSS | high polyreactivity |
| QVQLVESGGGLVQAGGSLRLSCAASGITFKWYAMGWYRQAPGKERELVAAISWSTGSTYYADSVKGRFTISRDNAKNTVYLPMNSLKPEDTAVYYCAARVKRPQTGYDRRYGYWGQGTQVTVSS | high polyreactivity |
| QVQLVESGGGLVQAGGSLRLSCAASGITFKYNAMGWYRPAPGKERELVAAISSGGNTYYADSVKGRFTISRDNAKNTVYLQMNSLKPEDTAVYYCAAPSYDTLWHDYWGQGTQVTVSS | low polyreactivity |
| QVQLVESGGGLVQAGGSLRLSCAASGITFKYYAMGWYRQAPGKERELVAAITRGGSTYYADSVKGRFTISRDNAKNTVYLQMNSLKPEDTAVYYCNKARTYELYWGQGTQVTVSS | high polyreactivity |
| QVQLVESGGGLVQAGGSLRLSCAASGITFKYYVMGWYRQAPGKEREFVAAISWGGGSTYYADSVKGRFTISRDNAKNTVYLQMNSLKPEDTAVYYCAARKGYYTHVQIGYRQSMDYWGQGTQVTVSS | high polyreactivity |
| QVQLVESGGGLVQAGGSLRLSCAASGITFLDYTMGWYRQAPGKERELVATISKSGGSTYYADSVKGRFTISRDNAKNTVYLQMNSLKPEDTAVYYCAARGFTFWRYYYWGQGTQVTVSS | high polyreactivity |
| QVQLVESGGGLVQAGGSLRLSCAASGITFLFYAMGWYRQAPGKERELVAAISRSGGSTYYADSVKGRFTISRDNAKNTVYLQMNSLKPEDTAVYYCAARSKDGGGPMYYWGQGTQVTVSS | high polyreactivity |
| QVQLVESGGGLVQAGGSLRLSCAASGITFLPYAMGWYRQAPGKERELVAAISWRGGRTYYADSVKGRFTISRDNAKNTVYLQMNSLKPEDTAVYYCAAVLVRKSGITYDYWGQGTQVTVSS | high polyreactivity |
| QVQLVESGGGLVQAGGSLRLSCAASGITFNGYTMGWYRQAPGKEREFVAAITRRGGSTYYADSVKGRFTISRDNAKNTVYLQMNSLKPEDTAVYYCARVTRLGGGDYDYWGQGTQVTVSS | high polyreactivity |
| QVQLVESGGGLVQAGGSLRLSCAASGITFNIYVMGWYRQAPGKERELVAAITDSGGTTYYADSVKGRFTISRDNAKNTVYLQMNSLKPEDTAVYYCAAEPFYSWWWWGDYWGQGTQVTVSS | high polyreactivity |
| QVQLVESGGGLVQAGGSLRLSCAASGITFNKNAMGWYRQAPGKEREFVAAITRRGGSTYYADSVKGRFTISRDNAKNTVYLQMNSLKPEDTAVYYCAARPYWSYRRYDYWGQGTQVTVSS | high polyreactivity |
| QVQLVESGGGLVQAGGSLRLSCAASGITFNPYVMGWYRQAPGTERELVAVITSGGSTNYADSVKGRFTISRDNAKNTVYLQMNSLKPEDTAVYYCNVDRRPYYVWRVTYDYWGQGTQVTVSS | low polyreactivity |
| QVQLVESGGGLVQAGGSLRLSCAASGITFNSYTMGWYRQAPGKERELVAAISDNGGRTFYADSVKGRFTISRDNAKNTVYLQMNSLKPEDTAVYYCAAVVYSEYYYWGQGTQVTVSS | low polyreactivity |
| QVQLVESGGGLVQAGGSLRLSCAASGITFNYYAKGSYRQAPGKERELVATINRSGGTTYYADSVKGRFTISRDNAKNTVYLQMNSLKPAVTAVYYCGALSKTRGGYWGQGTQVTVSS | high polyreactivity |
| QVQLVESGGGLVQAGGSLRLSCAASGITFPANARGWYRQAPGKERELVADISESDGSTYYADSVKGRFTISRDNAKNTVFLQMNSLKPEDTAVYYCAADGTSGTRSDYWGQCTQVTVSS | low polyreactivity |
| QVQLVESGGGLVQAGGSLRLSCAASGITFPGNAMGWYIQAPGKERELVAVISSGTSTNYADSVKGRFTISRDNAMNTVYLQMNSLKPEDTAVYYCATSLYYYPYYYWGQGTQVTVSS | low polyreactivity |
| QVQLVESGGGLVQAGGSLRLSCAASGITFPGTVMGWYRQAPGKERELVAAISTSGGSTYYADSVKGRFTISRDNAKNTVYLQMNSLKPEDTAVYYCARQYIRSSYGYWGQGTQVTVSS | low polyreactivity |
| QVQLVESGGGLVQAGGSLRLSCAASGITFPLYAMGWYRQAPGKETELVASITRGGTTNYADSVKGRFTISRDNAKNTVYLQMNRLKPEDTAVYYCAAEVTRDRGFDYWGQGTQVTVSS | low polyreactivity |
| QVQLVESGGGLVQAGGSLRLSCAASGITFPVYTMGWYRPAPVKERELVAAITSSGGSTYYADSVKGRFTISRDNAKNTVYLQMISLKQEDTAVYYCAARDYGRHHSYGYWGQGTQVTVSS | high polyreactivity |

| Sequence | polyreactivity (PSR sort gate) |
| --- | --- |
| QVQLVESGGGLVQAGGSLRLSCAASGITFPVYTMGWYRQAPGKERALVAAISRSGGRTYYADSVKGRFTISSDNAKNTVYLQMNSLKPEDTAVYYCAVRQATVTGGGYWGQGTQVTVSS | high polyreactivity |
| QVQLVESGGGLVQAGGSLRLSCAASGITFPWYAMGWYIQAPGKERELVAAISFSGGSTYYADSVKWRFTISRDNAKNTVYLQMNCLKPVDTAVYYCAAVDGYSYIYAAGDYWGQGTQVTVSS | low polyreactivity |
| QVQLVESGGGLVQAGGSLRLSCAASGITFPYNAMGWYRQAPGKERELVASINSGDSTNYADSVKGRFTISRDNAKNTVYLQMNSLKPEDTAVYYCAAADYWHYKYDYWGQGTQVTVSS | low polyreactivity |
| QVQLVESGGGLVQAGGSLRLSCAASGITFPYYAMGWYRQAPGKERELVAAITIRSGRTYYADSVKGRFTISRDNAKNTVYLQMNSLKPEDTAVYYCAARLSNTYGYWGQGTQVTVSS | high polyreactivity |
| QVQLVESGGGLVQAGGSLRLSCAASGITFQGYTIGWYRQAPGKERELVAAISSNGGRTYYADSVKGRFTISRDNAKNTVYLQMNSLKPEDTAVYYCAARKWRLIVDYWGQGTQVTVSS | high polyreactivity |
| QVQLVESGGGLVQAGGSLRLSCAASGITFQKYVMGWYRQAPGKEREFVAAITARGGTTYYADSVKGRFTISRDNAKNTVYLQMNSLKPEDTAVYYCAARSYYSGLAYYYWGQGTQVTVSS | high polyreactivity |
| QVQLVESGGGLVQAGGSLRLSCAASGITFQNYAMGWYRQAPGKERELVAAITGRGGSTYYADSVKGRFTISRDNAKHTVYLQMNSLKPEDTAVYYCATDRRGYRDDYWGQGTQVTVSS | high polyreactivity |
| QVQLVESGGGLVQAGGSLRLSCAASGITFQRYAMGWYRQAPGKERELVAAISTNGGTTYYADSVKGRFTISRDNAKNTVYLQMNSLKPEDTAVYFCNAESGYVYYIRYNYWGQGTQVTVSS | high polyreactivity |
| QVQLVESGGGLVQAGGSLRLSCAASGITFQRYAMGWYRQAPGKVRELVAAITRRGGSTYYADSVKGRFTISRDNAKNTVYLQMNSLKPEDTAVYYCAADLFFKARGYDYWGQGTQVTVSS | high polyreactivity |
| QVQLVESGGGLVQAGGSLRLSCAASGITFQWNAMGWYRQAPGKERELVAAISSGTSTYYADSVKGRFTISRDNAKNTVYLQMNSLKPEDTAVYYCNAVKSWGHPGRYYWGQGTQVTVSS | high polyreactivity |
| QVQLVESGGGLVQAGGSLRLSCAASGITFQYYAMGWYRQAPGKERELVAAITSSGVSTYYADSVKGRFTISRDNAKNTVYLQMNSLKPEDTAVYYCNTVVRGWSTSAYDYWGQGTQVTVSS | low polyreactivity |
| QVQLVESGGGLVQAGGSLRLSCAASGITFRDYAMGWYRQAPGKERELVAAISRSVGSTYYADSVKGRFTISRDNAKNTVYLQMNSLKPEDTAVYYCAALSQREFDYWGQGTQVTVSS | high polyreactivity |
| QVQLVESGGGLVQAGGSLRLSCAASGITFRGNVMGWYRQAPGKERELVAAISGSSGRTYYADSVKGRFTISRDNAKNTVYLQMYSLKPEDTAVYYCAATRTVRSYSIAPALGYWGQGTQVTVSS | high polyreactivity |
| QVQLVESGGGLVQAGGSLRLSCAASGITFRGYAMGWYRQAPGKERELVAAINSGGSTNYADAVKGRFTISRDNAKNTVYLQMNSLKPDDPAVYYCAADDYPYGNYYWGQGTQVTVSS | high polyreactivity |
| QVQLVESGGGLVQAGGSLRLSCAASGITFRGYAMGWYRQAPGKERELVADITWNGGSTYYADSVKGRFTISRDNAKNTVYLQMNSLKPEDPAVYYCAADGYRIYWSSYRFYYWGQGTQVTVSS | high polyreactivity |
| QVQLVESGGGLVQAGGSLRLSCAASGITFRGYAMGWYRQAPGKERELVASITNTDSTYYADSVKGRFTISRDNAKNTVYLQMNSLKPEDTAVYYCAARRGRKYGYWGQGTQVTVSS | high polyreactivity |
| QVQLVESGGGLVQAGGSLRLSCAASGITFRHYAMGWYRQAPGKEREMVARIRGGGVSTYYADSVKGRFTISRDNAKNTVYLQMNSLKPEDTAVYYCNAVFESWWGDYDYWGQGTQVTVSS | high polyreactivity |
| QVQLVESGGGLVQAGGSLRLSCAASGITFRKYFMGWYRQAPGKERELVATITRNGGTTNYADSVKGRFTISRDNAKNTVYLQMNSLKPEDTAVYYCAAPGPGYIYLGFDYWGQGTQVTVSS | high polyreactivity |
| QVQLVESGGGLVQAGGSLRLSCAASGITFRLYAMGWNRQAPGKERELVAAITGSGGRTYYADSVKGRFTISRDNAKNTVYLHMNSLKPEDTAVYYCAADWRHLRYRGGLKYDYWGQGTQVTFSS | high polyreactivity |
| QVQLVESGGGLVQAGGSLRLSCAASGITFRLYAMGWYRQAPGKERELVAAISKRGGSTYYADSVKGRFTISRDNAKNTVYLPMNSLKPDDTAVYYCAADSGWEHRYDYWGQGTQVTVSS | high polyreactivity |
| QVQLVESGGGLVQAGGSLRLSCAASGITFRRYTMGWYRQAPGKEWELVATISLSDGNTYYADSVKGRFTISRDNAKTTVYLQMNSLKPEDTAGYYCNARHTWHQTYDYWGQGTQVTVSS | low polyreactivity |
